Laboratory results reported in patent US20220106391A1.

Columns and labels:
NGF (species not stated) = test: cell-based or functional assay
rat NGF (rat) = rat NGF (rat) (UniProt P25427); test: cell-based or functional assay
[1] = molecular target: canine beta-NGF (cNGF) (canine); test: SPR (Biacore), cNGF binding
[2] = molecular target: canine beta-NGF (cNGF) (canine); test: SPR (Biacore), cNGF binding; KD column of Table 7

canine beta-NGF (cNGF) (canine), sequence (Q29074 110-229 N171T limits assumed): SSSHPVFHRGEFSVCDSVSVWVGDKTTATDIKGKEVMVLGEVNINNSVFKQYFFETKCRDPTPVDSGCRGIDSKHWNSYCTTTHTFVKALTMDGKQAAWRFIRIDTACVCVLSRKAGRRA
rat NGF (rat), sequence (P25427 122-241 limits assumed): as the sequence (Q29074 110-229 N171T limits assumed) above, with S3T, R9M, M37T, D60A, T62N, D65E, M92T, G94D, G117A, A120G counted along it

- IC50 nM (TF-1 proliferation inhibition, NGF 2.0 ng/ml) (NGF (species not stated)): 0.087 nM
- IC50 µg/ml (TF-1 proliferation inhibition, NGF 2.0 ng/ml) (NGF (species not stated)): 0.0131 µg/mL
- IC50 nM (inhibition of neurite outgrowth, PC12 cells, rat NGF 10 ng/ml; Repeat 1) (rat NGF (rat)): 0.26 nM
- IC50 nM (inhibition of neurite outgrowth, PC12 cells, rat NGF 10 ng/ml; Repeat 2) (rat NGF (rat)): 0.24 nM
- IC50 µg/ml (inhibition of neurite outgrowth, PC12 cells, rat NGF 10 ng/ml; Repeat 1) (rat NGF (rat)): 0.039 µg/mL
- IC50 µg/ml (inhibition of neurite outgrowth, PC12 cells, rat NGF 10 ng/ml; Repeat 2) (rat NGF (rat)): 0.035 µg/mL
- Kd [1]: 0.00434 nM
- koff [1]: 1.54e-08 s⁻¹
- kon [1]: 3560 M⁻¹ s⁻¹
- Kd [2]: 0.00434 nM
B1: ZTS-182m6 (antibody, V domains shown)
VH: EVQLVESGGDLARPGGSLKLSCVVSGFTLTQYGINWVRQAPGKGLQWVTVIWATGATDYNSALKSRFTVSRDNAMNTVYLQMNSLRVEDTAVYYCARDGWWYATSWYFDVWGQGTLVTVSS
VL: DIVMTQTPLSLSVSPGEPASISCKASQDINHYLNWFRQKPDGTVKLLIYYTTRLQAGVPSRFSGSGSGTDFTLRISRVEADDAGVYYCQQGDHFPRTFGQGT
